Test results as given in publication PMC11437077.

T1: mouse PD-L2 with C-terminal biotin, Q9WUL5
T1 chain: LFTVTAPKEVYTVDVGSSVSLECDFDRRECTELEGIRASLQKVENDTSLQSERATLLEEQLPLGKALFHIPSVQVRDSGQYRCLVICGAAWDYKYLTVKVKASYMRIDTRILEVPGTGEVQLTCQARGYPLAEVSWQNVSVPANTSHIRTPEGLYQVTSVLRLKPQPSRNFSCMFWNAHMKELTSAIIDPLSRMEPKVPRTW

B1: mouse PD-1 wild type expressed on CHO cells, Q02242 A132K (protein)
chain: LEVPNGPWRSLTFYPAWLTVSEGANATFTCSLSNWSEDLMLNWNRLSPSNQTEKQAAFCNGLSQPVQDARFQIIQLPNRHDFHMNILDTRRNDSGIYLCGAISLHPKKKIEESPGAELVVTERILETSTRYPSPSPKPEGRFQGMVIGIMSALVGIPVLLLLAWALAVFCSTSMSEARGAGSKDDTLKEEPSAAPVPSVAYEELDFQGREKTPELPTACVHTEYATIVFTEGLGASAMGRRGSADGLQGPRPPRHEDGHCSWPL
B2: mouse PD-1 wild type expressed on CHO cells, Q02242 L128A; K131A (protein)
chain: LEVPNGPWRSLTFYPAWLTVSEGANATFTCSLSNWSEDLMLNWNRLSPSNQTEKQAAFCNGLSQPVQDARFQIIQLPNRHDFHMNILDTRRNDSGIYLCGAISAHPAAKIEESPGAELVVTERILETSTRYPSPSPKPEGRFQGMVIGIMSALVGIPVLLLLAWALAVFCSTSMSEARGAGSKDDTLKEEPSAAPVPSVAYEELDFQGREKTPELPTACVHTEYATIVFTEGLGASAMGRRGSADGLQGPRPPRHEDGHCSWPL
B3: mouse PD-1 wild type expressed on CHO cells, Q02242 K131A (protein)
chain: LEVPNGPWRSLTFYPAWLTVSEGANATFTCSLSNWSEDLMLNWNRLSPSNQTEKQAAFCNGLSQPVQDARFQIIQLPNRHDFHMNILDTRRNDSGIYLCGAISLHPAAKIEESPGAELVVTERILETSTRYPSPSPKPEGRFQGMVIGIMSALVGIPVLLLLAWALAVFCSTSMSEARGAGSKDDTLKEEPSAAPVPSVAYEELDFQGREKTPELPTACVHTEYATIVFTEGLGASAMGRRGSADGLQGPRPPRHEDGHCSWPL

Legend:
[1] = molecular target: T1, mouse PD-L2 with C-terminal biotin, …; assay: 2D effective affinity measurement, PD-L2-coated RBCs against PD-1-expressing CHO cells; settings: chain shown with the change, parent: est. 0.00098, read off a plot
[2] = molecular target: T1, mouse PD-L2 with C-terminal biotin, …; assay: dynamic force spectroscopic analysis with BFP; settings: chain shown with the change
[3] = molecular target: T1, mouse PD-L2 with C-terminal biotin, …; assay: bond lifetime vs force measurement, single bonds (BFP); settings: chain shown with the change, read off a plot
[4] = molecular target: T1, mouse PD-L2 with C-terminal biotin, …; assay: effective bond lifetime (bond lifetime x bond survival probability, BFP data); settings: chain shown with the change, read off a plot

Binder | other: AcKa (2D effective affinity) ([1]; n = 12 cell pairs) [µm^4] | other: F1/2 (rupture force) ([2]; n = 270 events) [pN] | other: bond lifetime ([3]; force bin est. 2.2 pN) [s] | other: bond lifetime ([3]; force bin est. 4.3 pN) [s] | other: bond lifetime ([3]; force bin est. 11 pN) [s] | other: AcKa (2D effective affinity) ([1]; n = 13 cell pairs) [µm^4] | other: F1/2 (rupture force) ([2]; n = 345 events) [pN] | other: effective bond lifetime ([4]; force bin est. 2.2 pN) [s] | other: effective bond lifetime ([4]; force bin est. 4.3 pN) [s] | other: effective bond lifetime ([4]; force bin est. 8.3 pN) [s] | other: effective bond lifetime ([4]; force bin est. 11 pN) [s] | other: F1/2 (rupture force) ([2]; n = 210 events) [pN]
B1 | 0.00085 | 9.5 | – | – | – | – | – | – | – | – | – | –
B2 | – | – | 0.16 | 0.15 | 0.05 | 0.00088 | 9.7 | 0.16 | 0.14 | 0.04 | 0.015 | –
B3 | 0.0011 | – | – | – | – | – | – | – | – | – | – | 9.4
